Four substances from US20220057381A1 can be followed below.

What all share (assay): cell-based or functional assay
The target in assay [1] is BCMA on multiple myeloma target cells (KILR MM-1R; RPMI8226_Luc) (UniProt Q02223).
Assay [2] concerns the target LCAR-B38M CAR (on LCAR-B38M CAR-T drug product cells).
Assay [3] deals with KLK2 CAR (on KLK2 CAR-T cells).

On to “LCAR-B38M CAR (on LCAR-B38M CAR-T drug product cells) (receptor)”, for which, in assay [1], the % Total Killing, sample PQ-0330 Donor B MOI = 1.5 on RPMI8226 luc target cells came out at 77% and the % Total Killing, sample SH19-28 on RPMI8226 Luc target cells was determined as 67%.

In assay [2], “Soluble Human BCMA Protein (sBCMA) (from UniProt Q02223 1-54) (receptor)” displayed a % CAR-T Killing of KILR MM-1R cells, baseline = CAR-T cells blocked with 50 ug/mL sBCMA lot C108P1-86BF2-NX of 42%; a % CAR-T Killing of KILR MM-1R cells, baseline = CAR-T cells blocked with 100 ug/mL sBCMA lot C108P1-86BF2-NX of 59%; a % CAR-T Killing of KILR MM-1R cells, baseline = CAR-T cells blocked with 150 ug/mL sBCMA lot C108P1-86BF2-NX of 68%; a % CAR-T Killing of KILR MM-1R cells, baseline = CAR-T cells blocked with 200 ug/mL sBCMA lot C108P1-86BF2-NX of 74%. In addition, in assay [2], the % CAR-T Killing of KILR MM-1R cells, baseline = CAR-T cells blocked with 250 ug/mL sBCMA lot C108P1-86BF2-NX turned out to be 79%; the % CAR-T Killing of KILR MM-1R cells, baseline = CAR-T cells blocked with 300 ug/mL sBCMA lot C108P1-86BF2-NX worked out at 79%; the % CAR-T Killing of KILR MM-1R cells, baseline = CAR-T cells blocked with 400 ug/mL sBCMA lot C108P1-86BF2-NX was determined as 62%; the % CAR-T Killing, Blocking method, sample PQ-0330 Donor B MOI = 1.5 on K562 Luc (non-B cell) target cells was -46%. For the same substance, in assay [2], the % CAR-T Killing, Blocking method, sample PQ-0330 Donor B MOI = 1.5 on RPMI8226 luc target cells stood at 28%; the % CAR-T Killing, Blocking method, sample SH19-28 on K562 Luc (non-B cell) target cells was -41%; the % CAR-T Killing, Blocking method, sample SH19-28 on RPMI8226 Luc target cells was determined as 29%; the % Control T Cell Killing (blocked baseline), Blocking method, sample PQ-0330 Donor B MOI = 1.5 on RPMI8226 luc target cells turned out to be 67%. In assay [2], this substance showed a % Control T Cell Killing (blocked baseline), Blocking method, sample SH19-28 on K562 Luc (non-B cell) target cells of 39% and a % Control T Cell Killing (blocked baseline), Blocking method, sample SH19-28 on RPMI8226 Luc target cells of 53%.

Substance “soluble human KLK2 protein (sKLK2) with C-terminal His6 tag (from UniProt P20151 25-261)” came in with a % CAR-T Killing of KILR LNcaP-KLK2 cells, baseline = SH20-KLK2-004-CAR-T blocked w/ 125 ug/mL KLK2 soluble protein (500 mg/mL) in assay [3] of 107%.

For “soluble human KLK2 protein (sKLK2) with C-terminal His6 tag (from UniProt P20151 25-261) (enzyme)”, in assay [3], the % CAR-T Killing of KILR LNcaP-KLK2 cells, baseline = SH20-KLK2-004-CAR-T blocked w/ 2.5 ug/mL KLK2 soluble protein (500 mg/mL) was found to be 49%; the % CAR-T Killing of KILR LNcaP-KLK2 cells, baseline = SH20-KLK2-004-CAR-T blocked w/ 12.5 ug/mL KLK2 soluble protein (500 mg/mL) was 68%; the % CAR-T Killing of KILR LNcaP-KLK2 cells, baseline = SH20-KLK2-004-CAR-T blocked w/ 25 ug/mL KLK2 soluble protein (500 mg/mL) is 79%; the % CAR-T Killing of KILR LNcaP-KLK2 cells, baseline = SH20-KLK2-004-CAR-T blocked w/ 50 ug/mL KLK2 soluble protein (500 mg/mL) is 96%. In assay [3], this substance registered a % CAR-T Killing of KILR LNcaP-KLK2 cells, baseline = SH20-KLK2-004-CAR-T blocked w/ 75 ug/mL KLK2 soluble protein (500 mg/mL) of 106% and a % CAR-T Killing of KILR LNcaP-KLK2 cells, baseline = SH20-KLK2-004-CAR-T blocked w/ 100 ug/mL KLK2 soluble protein (500 mg/mL) of 111%.
